Results: patent US20120115202A1

Molecular target: PsaJF mutant PSI from Synechocystis sp. PCC 6803 (Synechocystis sp. PCC 6803) (UniProt Q55329)
Assay: cell-based or functional assay

horse heart cytochrome c (from UniProt P00004 2-105)
rate of electron donation (light-induced cytochrome c oxidation, absorbance difference 550-540 nm) (fold faster than to the wild-type PSI): > 5
